Experimental findings from article PMC3626232 (The Journal of biological chemistry, 2000) are described below.

The labels stand for the following.
B1: XMcm4 (natural protein, UniProt P30664 1-863, looked up)
chain: MSSPTSTPSRRRNKRGRGSNPPTPHGEEVQSPPSQRRRTEDSTSIGELLPMPTSPSGDVQSPSGQELLFSSPAPSRHSAHQSELDLSSPLTYGTPSSRVEGTPRSGIRGTPARQRPDLGSARKVKQVDLHSDQPAAEELVTSEQSLGQKLVIWGTDVNVATCKEKFQRFVQRFIDPSAKEEDNVGLDLNEPIYMQRLEEINVVGDPFLNIDCDHLRNFDQDLYRQLVCYPQEVIPTFDMAANEIFFERYPDSILEHQIQVRPYNALKTRNMRSLNPEDIDQLITISGMVIRTSQIIPEMQEAFFKCQVCAFTTRVEIDRGRIAEPSVCKHCNTTHSMALIHNRSMFSDKQMIKLQESPEDMPAGQTPHTTILYGHNDLVDKVQPGDRVNVTGIYRAVPIRVNPRVRNVKSVYKTHIDVIHYRKTDSKRLHGIDEDTEQKLFTEERVAMLKELAAKPDIYERLAAALAPSIYEHEDIKKGILLQLFGGTRKDFSHTGRGKFRAEVNILLCGDPGTSKSQLLQYVFNLVPRGQYTSGKGSSAVGLTAYVMKDPETRQLVLQTGALVLSDNGICCIDEFDKMNESTRSVLHEVMEQQTLSIAKAGIICQLNARTSVLAAANPVESQWNPKKTTIENIQLPHTLLSRFDLIFLMLDPQDEAYDRRLAHHLVALYYQSEEQMKEEHLDMAVLKDYIAYARTYVNPRLSEEASQALIEAYVSMRKIGSGRGMVSAYPRQLESLIRLSEAHAKVRFSNKVETIDVEEAKRLHREALKQSATDPRTGIVDISILTTGMSATARKRKEELAQVLKKLIQSKGKTPALKYQQLFEDLRGQSDAAITKDMFDEALHALADDDYLTVTGKTVRLL

Common to all, as to assay: co-purification by chromatography with densitometry
For one experiment, the target named is T1, XMcm2 (Xenopus (endogenous in Xenopus egg …, UniProt P55861 1-886)).
T1 sequence (looked up): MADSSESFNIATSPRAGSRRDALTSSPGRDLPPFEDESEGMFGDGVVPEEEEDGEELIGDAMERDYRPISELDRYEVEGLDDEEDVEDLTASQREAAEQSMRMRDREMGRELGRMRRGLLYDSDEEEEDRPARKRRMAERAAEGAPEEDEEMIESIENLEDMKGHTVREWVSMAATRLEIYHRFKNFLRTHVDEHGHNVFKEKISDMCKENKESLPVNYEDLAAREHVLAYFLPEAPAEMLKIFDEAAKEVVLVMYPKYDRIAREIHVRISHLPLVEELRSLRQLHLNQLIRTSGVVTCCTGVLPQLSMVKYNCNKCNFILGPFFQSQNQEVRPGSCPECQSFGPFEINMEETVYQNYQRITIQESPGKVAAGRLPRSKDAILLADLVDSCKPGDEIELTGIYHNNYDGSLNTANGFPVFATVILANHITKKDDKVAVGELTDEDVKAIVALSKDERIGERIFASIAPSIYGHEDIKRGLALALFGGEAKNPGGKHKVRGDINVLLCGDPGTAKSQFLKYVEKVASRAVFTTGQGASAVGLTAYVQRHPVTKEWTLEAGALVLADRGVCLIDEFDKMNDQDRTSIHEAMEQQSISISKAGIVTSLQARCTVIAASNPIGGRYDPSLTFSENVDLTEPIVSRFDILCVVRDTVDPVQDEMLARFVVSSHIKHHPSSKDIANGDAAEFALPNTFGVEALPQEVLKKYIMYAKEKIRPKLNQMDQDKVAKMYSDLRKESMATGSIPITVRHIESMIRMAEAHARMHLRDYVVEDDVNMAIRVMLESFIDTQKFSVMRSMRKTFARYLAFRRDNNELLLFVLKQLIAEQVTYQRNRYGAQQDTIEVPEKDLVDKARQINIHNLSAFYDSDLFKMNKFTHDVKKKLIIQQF

The target in the experiment “XMcm4” is B1.
For a further experiment, the target named is T2, XMcm3 (Xenopus (endogenous in Xenopus egg …, UniProt P49739 1-807)).
T2 sequence (looked up): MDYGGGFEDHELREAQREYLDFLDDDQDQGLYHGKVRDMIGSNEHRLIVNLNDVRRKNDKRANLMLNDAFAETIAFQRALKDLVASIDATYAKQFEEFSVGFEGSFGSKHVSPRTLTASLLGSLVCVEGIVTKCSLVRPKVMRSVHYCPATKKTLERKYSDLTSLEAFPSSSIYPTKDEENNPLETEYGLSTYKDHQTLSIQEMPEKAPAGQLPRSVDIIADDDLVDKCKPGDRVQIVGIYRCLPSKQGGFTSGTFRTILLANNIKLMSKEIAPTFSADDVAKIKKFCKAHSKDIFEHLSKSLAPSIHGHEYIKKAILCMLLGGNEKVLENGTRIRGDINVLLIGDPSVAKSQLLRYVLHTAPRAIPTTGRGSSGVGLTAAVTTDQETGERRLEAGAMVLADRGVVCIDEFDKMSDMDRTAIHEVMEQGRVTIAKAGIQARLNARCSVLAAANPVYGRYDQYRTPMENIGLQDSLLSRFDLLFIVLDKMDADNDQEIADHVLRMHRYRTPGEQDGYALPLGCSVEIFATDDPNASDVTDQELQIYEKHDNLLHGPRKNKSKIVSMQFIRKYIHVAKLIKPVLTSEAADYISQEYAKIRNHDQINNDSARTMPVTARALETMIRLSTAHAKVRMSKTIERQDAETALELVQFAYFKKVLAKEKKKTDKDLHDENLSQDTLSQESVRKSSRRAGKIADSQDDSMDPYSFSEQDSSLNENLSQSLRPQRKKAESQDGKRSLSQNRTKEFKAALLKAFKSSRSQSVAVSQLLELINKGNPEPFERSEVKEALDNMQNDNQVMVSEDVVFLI

Usually stoichiometry N stands for the number of molecules, sites or subunits per partner or assembly.

Turning to B1, in the experiment with XMcm2, the “stoichiometry N” value amounted to 1.1 XMcm4 per 1.0 XMcm2.

B2: XMcm6 (natural protein, UniProt Q5FWY4 1-821, looked up)
chain: MELGGPAAAGDTDIAGQQLFKDELSDKCQKLFLEFLEECKGKDGSNLYVSAAEELIRPERNTLAVNFTDIEYYNQQLATTIQEEYYRVYPHLCRAVRSFARQMGNIPANKEFYIAFSDFPARQKIRELSSAKIGTLLRISGQVVRTHPVHPELVSGTFLCMDCQSIVKDVEQQFRYTQPTICKNPVCANRRRFTLDTNKSRFVDFQKVRIQETQAELPRGAIPRSVEIILRAEAVESAMAGDRCDFTGTLIVVPDVSALAAGDARMETGAKVTGGEGFNSEGVQGLKALGVRDLSYRLAFLACYVGATNPRFGGKDLREEDQTAESIKNQMTVQEWEKVFEMSQDKNLYHNLCTSLFPTIHGNDEIKRGVLLMLFGGVPKTTMEGTSLRGDINVCIVGDPSTSKSQFLKHVEEFSPRAVYTSGKASSAAGLTAAVVKDEESHEFVIEAGALMLADNGVCCIDEFDKMDLKDQVAIHEAMEQQTISITKAGVKATLNARTSILAAANPVGGRYERSKSLKHNVNLSAPIMSRFDLFFILVDECNEVTDYAIARRIVDLHARNEESIERVYSIEDIQRYLLFARQFQPKITKEAEEFIVEQYRRLRQRDGSGVAKSSWRITVRQLESLIRLSESMARMHCSDEVQPKHVKEAFRLLSKSIIRVDTPDVSFDQGEDEKNIEGENNGNLNNGEEAMETNQDEPINEKPSSNAGLKMSFAEYKQISNLLVLYMQKMEETEEECHLTTTDLVNWYLKEMEAEIETETELILKKRLIEKVIHRLIYYDHILIELNKSELKTMDDTKETGEDAAEDRILVVNPNYMLED
On to B2, for which the figures for the “stoichiometry N” value with XMcm2 and with XMcm4 were 1.1 XMcm6 per 1.0 XMcm2 and 1 XMcm6 per 1.0 XMcm4, respectively.

B3: XMcm5 (natural protein, UniProt P55862 1-735, looked up)
chain: MSGFDDLGVYYSDSFGGEQQVGDDGQAKKSQLKKRFREFLRQYRIGTDRTGFTFKYRDELKRHYNLGEYWIEVEMEDLASFDEDLADYLYKQPTEHLQLLEEAAQEVADEVTRPRPAGEETIQEIQVMLRSDANPANIRSLKSEQMSHLVKIPGIIIAATAVRAKATKISIQCRSCRNTIGNIAVRPGLEGYAMPRKCNTEQAGRPNCPLDPYFIIPDKCKCVDFQTLKLQESPDAVPHGELPRHMQLYCDRYLCDKVVPGNRVTIMGIYSIRKSGKTSTKGRDRVGVGIRSSYIRVVGIQVDTEGTGRSAAGAITPQEEEEFRRLAAKPDIYETVAKSIAPSIYGSSDIKKAIACLLFGGSRKRLPDGLTRRGDVNLLMLGDPGTAKSQLLKFVERCSPIGVYTSGKGSSAAGLTASVMRDPVSRNFIMEGGAMVLADGGVVCIDEFDKMREDDRVAIHEAMEQQTISIAKAGITTTLNSRCSVLAAANSVYGRWDDTKGEENIDFMPTILSRFDMIFIVKDEHNEQRDMTLAKHVMNVHLSARTQSSSVEGEVDLNTLKKYIAYCRAKCGPRLSAEAAEKLKNRYILMRSGAREHERETEKRSSIPITVRQLEAIVRISESLGKMKLQPFATETDVEEALRLFQVSTLDAAMSGSLSGVEGFTTQEDQEMLSRIEKQMKKRFAIGSQVSEHSIIQDFLKQKYPEHAIHKVLSLMMRRGEIQHRLQRKVLYRIK
Take B3: in the experiment with XMcm3, the “stoichiometry N” value was found to be 1.2 XMcm5 per 1.0 XMcm3.

B4: XMcm7 (natural protein, UniProt Q91876 1-720, looked up)
chain: MPRDYQTEKEKCKTFLQEFYKDDEIGKKHFKYGVQLANIAHREQVALYIDLDDLAEEDPELVDAICENTRRYTNLFADAVQELLPQYKEREVVHKDALDVYIEHRLMMEQRGRDPNEMRDSQNQYPPELMRRFELYFKAPSSSKARVVRDVKADSIGKLVNIRGIVTRVTEVKPMMVVATYTCDQCGAETYQPIQSPTFMPLIMCPSRECQTNRSGGRLYLQTRGSKFIKFQELKIQEHSDQVPVGNIPRCMSVYVRGENTRLAQPGDHVGITGVFLPMLRTGFRQVVQGLLSETYLECHRLVKMNKSEDDELGTEELSEEELRQITEEDFYEKLAASIAPEIYGHEDVKKALLLLLVGGVDNSPRGMKIRGNINICLMGDPGVAKSQLLSYIDRLAPRSQYTTGRGSSGVGLTAAVMKDPVTGEMTLEGGALVLADQGVCCIDEFDKMMDTDRTAIHEVMEQQTISIAKAGIMTTLNARCSILAAANPAYGRYNPKKTVEQNIQLPAALLSRFDVLWLIQDKPDRDNDLRLAQHITYVHQHSKQPPSQFQPLDMKLMRRYITMCKRKQPAIPEALADYLTAAYVEMRKEARTNKDMTFTSARTLLSVLRLSTALARLRLEDVVEKEDVNEAMRLMEMSKDSLLGDKGHTSRTQRPADVIFSTIREMVPEKGARSVKYSEAEQRCVSKGFTPAQFEAALEEYEELNVWLVNQARTKITFV
Consider B4, for which the entries for the “stoichiometry N” value with XMcm2 and in the experiment with XMcm4 were 1.1 XMcm7 per 1.0 XMcm2 and 1.1 XMcm7 per 1.0 XMcm4, respectively. In the experiment with XMcm3, the binding result is “binds”.
